Assay: soluble on expression in E. coli; label from the status in PepcDB or PDB records
With “MAHHHHHHMQSSISQEKLQLMQKNFNLVDLNKDGKIAAEEFKTLLRLLGQTKTEKEMDEMVDKHFEDAPIGEEQQQDAAEAADKGGANEGTPSTAKQLGGQKNTAKTAPNHDRIKNLIAKLNNSKDEDKKKNSPNGQINRTGDVYAKNELINKKKKHINFETFLRIFLETYEEPLSVDELITSFEFFDKEKSGYLDEEKVRFILKNSEERLADEDMKLFLNSLNLRDKDKIDYVMLAKRLKNVA” the “soluble on expression in E. coli” value was “not soluble”. With “MAHHHHHHMRGTPLREGHHSPTQSVRRFFSDYQHVQEEKVNLPRLKLRGLPFDASEEEIKTFFKNFQLAKVGYPIHIIRGVKNKPTGQAHVYFDDEEEARKACETLNRKFLRNRYIEIYTDYIFNHNLTLVKEHVTTLMRDRYRKDNQ” the “soluble on expression in E. coli” value was “not soluble”. With “MAHHHHHHMRIHHAFFRQSCRIMRGIDSARSTPTFVNGTDGMGTIHMLFSKRTHSNTTHSNADSAYMPGSNLHVEHPIVQLPARSLWCKQYPLDISLVRRGEFNDMIGRVRAARHYYQYPSLCAPKIGWNVQMFTLFDGTVFINPINLDALEVEEIAKQKSITFVEAEALWMEKKRREGKTCFAWEPCASCCFLLHFIERPSTVRVRAIAEDGNPFEVTLDKMRARMALHELDHLNGILFTRRIPDTSHVVPLEGFSTMSEWPDDYPSLEARSTFLYTTFTPPYTFITDSVEDAQLLDRKFEDGIYPGCEHDRRMRIESAAFEELQRAQWRMEKTREENSEEYDGVEGEVDEEDQEHCEETAAGGVAVKDNAPQ” the “soluble on expression in E. coli” value was “not soluble”. In the case of “MAHHHHHHMRILHKLGKNVFQTARRSFSLVTKQAHDFTAQGLNKNNEIINVQLSSYIGKKYCCLLFYPLNYTFVCPTEIIEFNKHVKSFEEKNVELLGISVDSVYSHLAWKNMPIEKGGIGNVNFTLVSDLNKEISKMYNVLYENSFALRGLFIIDLQGKVRHQTVNDLPLGRSVDEVLRTIDSIIHVDKTGDVCPINWKKGAKSFQPTNDSLLNYLNTEVKKE”, the “soluble on expression in E. coli” value is reported as “soluble”. In the case of “MAHHHHHHMRPHTPAKVATTASDGATTTKTTSHPVLLGCGLNWASFVASHPFEVKELTSVLVGDGSDDDGVPEERDALVQAQLPVASVVTSGATLERVFTEAMVCASARAEVARKVQHIATVWCLHPSSEYVATLCWPMEGGESASTTTAVLKVQTEGGRAPLDLRAVSLHVVDRGSLVFHPEFTRCILAQGAERFMYYVPPNPLEATTALPFMRGLWYNGLFSLLELLRIGPQHVVMLFVLPNGDTRYTLDLAPESPAVPAPSSTHQQGSGALGSAASRNATASLYPWRRQSKVRRVIRSGAYVVVVRDDTAGVVESLQRACSYHGQNKRSTWLNDIFIHLMGQCSRRDILCSADAAASQPAEADKANDVRLLCIELVEKATGEVMAGCCGMAVGCAYHDYTMYTLRQTKDGLGTFLTKLIGEALQRCGYTLWYWGFCVEYMRHFERHFGAVDMPRDVFYRRWSAARDAAPECSIDAYLRSHKGMVPYYEGTSALVKSKP”, the “soluble on expression in E. coli” value is reported as “not soluble”. For “MAHHHHHHMRVASFCLPLHLLSFGAQARGCFRHSTGGSSSVFCAARPFRLSHTMAASACSSAVHLDNFRLLAAGHDATHAAPSSAPLTAPISFSLTFHFQRYDGADFESFISSLGVSVDFVADVASEQTTLTLLPLTPVSGPWARRDTAAANGAFLMAASASDSSTSSSDYAAGAPLDGAAGAAPGMMYQLRVYLSDFRALEKVQLKHLLQVSMMHVRLAHLGTSDGVGNSDSSDPRTEERSVAAWNVIWRVRRNPQNEQELIRTVLDPLA”, the “soluble on expression in E. coli” value was “not soluble”. In the case of “MAHHHHHHMRVLSLLSALCLVSTCRGHRNLFARNNYLQYLRSQNFMQEKPKFQKLNQNYSEDLNEFDNYEDDELDAENVEATSKERVTQKSGTSSSSSENKLEFKNIEKELNNMGEILHEEKDNLLLMGGGRECSVSDKGTLDVSLNSGDIFNLTKYTVEMSSSGILIRDTQNSNVVKEIAFDTVKLPIETIEETRECWKIRSHKETFLFCERSKEARDRWITNMLKALFCYNTNNLTIDEGVQTGLSSKVDIPKESTVDARIAASLKDEPNGSGDNSSHGRAKRKGNNNITISNLKNDKPEIVVN”, the “soluble on expression in E. coli” value is reported as “not soluble”. In the case of “MAHHHHHHMSAHEEEIDMILSMFSDECERYEGTSDSIIVHLPFHFELQVTLPPHGYPDASYPKLYLLSSPNAQLASAFSQAVYRRMRDEISLGIPMLALLIPLAQSVAEELKDLKERAEKARQDEAVERMSELQRKEEHRRETGIAIWSGQAIVDRRSRFVAHMARVHSMDEVREVVGHLRSVKSIACAAHPTIYAYRFTDANGVLQKDSDDDGESGASIKMMFLLDHLQIDGYVVVVTRWWGGILLGPDRFKHIMEVTKNLLLTIPEREKEMAASAKRKSLR”, the “soluble on expression in E. coli” value is reported as “soluble”. In the case of “MAHHHHHHMSENVAAAQRRWQAGMHEVEAYLNALDSARADSAKAGLYHRAQQCMQHMEKIIRLLAKRIAREANIMAERARQALTEQQRLLQRNLRKRWKTKMLVYEENASAMLAAAEQHHYAERVREDERAHEELRSVRAGGSMAHSRSSKVQHLQSEIQLYLRQHRYREAERAQAQLSRFEKQEQQSQQRNLTHLQEQRLQAMRMKQEEQLAKMKAAYQQEKQEITRTCRAELDAMTRQHEVALQAVEERRLFLHERVQAILKAYNDADTLDPRAAGQKLIRISQLLWTSREVQQSSKRI”, the “soluble on expression in E. coli” value is reported as “not soluble”. With “MAHHHHHHMSFTEWPVSRVRQEFVDYFKKQGHTFVPSSPVCPHDDPTLLFINAGMNQFKALFLGTADPNTDFGRLKRAANSQMCIRAGGKHNDLEDVGRDTYHHTFFEMLGSWSFGDYFKKEAIQWAWELLTEVYKLPKDQLYVTYFEGDESNGLDPDLEAKELWGQLLPESQIVPGNAKDNFWEMGDTGPCGPCSEVHFDRIGRRNAASLVNKDDPMVVEIWNLVFMQFERRAGGFLTPLPQKHIDTGMGLERLTSILQGVKSNYDTDAWIPLFEAIQTATGYPKSYAEIRNDPDSDALVAYRVVADHIRCLTSAVGDGVMPDSVGRGFVLRRIIRRAVRYGVQFLGAKPGFFTQLVDSVCTSLGPFFPHLKEPRNIQRIKAVLADEEQSFAKTWEMGLKHFNHAVNECRANSSKVISGSEAFVLHDRYGFPVDLTCLLAEKDGMTVDLEGFNTEMKESKVSAGRVAATKTFIDAYQLEELKTRGIPQTNDAAKYVWEDYTGDVLAIFDKKNSKFISLLEPGNDLGAEGVGIILSTTNFYAESGGQVYDTGRLVAASDSVFEGRRRTTWPATWCTWATSASTLPPRSPRLRWCSCRWTTSAACRSRQTIPRPTS” the “soluble on expression in E. coli” value was “not soluble”. With “MAHHHHHHMSHYLLVTFTFNCPEIRILGPIKEQTIEKLNDVIPNATTTSRSNRTALPKFEYLPNPNHWYIKLDRQFCDEDGKSHLMVLLLDALSEEGSWRLVSSFVTKEPSGTGSKEGTETHTLFLNKLLAEDS” the “soluble on expression in E. coli” value was “soluble”. With “MAHHHHHHMSKKRKSYENDEDVYDNKRNKKNVASSIDSYGRKVWDKEYYQKKVDEKVENDEDELILKLLPDLKKKSKLEPPPPSERKLLEERKENLLLEKNLGKVQILTQKTPKNEQGGYYCKICDCVLKDSQTYLDHINGKNHNRMLGYSMKVKKVTLDDVKKRLSLLKDKKQNKTEDVEKDPYEDAKKNLKDMQEDEERRIQKRKEKKMLKKLEKEKKKNENENENNDEESDNMNMMFKEMGLPTSFV” the “soluble on expression in E. coli” value was “soluble”. For “MAHHHHHHMSLAREKYLKRKRELLENINLIDIGEKISNTGKNEGNSKSDNIKKESRSRDFIKNDNRTRESFKKNDRGEYIDNDRKHLKSNNYNMLSSYNNKDIKNENRDLRKSPYDHRKLNNKNEQDILSNKTKRSSTNLQYNNDYAFVNKENNVLINNSSKMVNSTNNINEYLKDLNNIDINDSLILLFYVCKLLLDMCSKVNMNQSSMNTSVTSVEMLRDMKSKNRKNIKLFKINILNNILIYLSDENVNTLTQGNPNYKDNNFEKRHEEIRIDEKCIDIEHVGINIVIKVIYINNIKKLIFKYLYLINNNFKHDGVGNINMYDGRLNKNEEQNYFTTPLMEHKNINFMNN”, the “soluble on expression in E. coli” value was “not soluble”. In the case of “MAHHHHHHMSQLSASPREEPVGIPELFLQYLKAKDLKDQLAIVRAHPVLFTDDVVAALKDARAQMNETFVEVKETCRVIDAVSGSLQYTGTSVQLQQTVAKELLDEDAILKKFATSLAGLLRARETAGPAAPSTISSLATASRVSSSLGAGKSHSPGAWFTQPSLVFSVLTFLSAEEIFITAENVCRAWQTWLFLPDMSRFFWVGCVQREFPEQLQVLLQTAGDDLYQSDWRSLAMLCVTEGEQAAEAEEAEEAGDGGAVRGVVPFL”, the “soluble on expression in E. coli” value is reported as “not soluble”. With “MAHHHHHHMSQTATAGPALPPPEEPLTYPITFTKQAEESPQSEPGVAAPAAPSGLHQISIFSALHFLLPVYELAGWLPKTTVQHSRKSGDKSSPVSATAGGSKSTSGTAADVSIDLDAIPHDDVRAALRLLPVFEKFFVEGSKIVAQHTDLYYFIESFTLPTPKGPKVITRSKVEGDYRAVHQPSHAPASLGAAGAMTKTTVTNSTAYFSLLPGHNQFLLYYEDCEKLRHFTYLQLDQLRFAWVAVKELLEESKVFNLSDGSLTGLAKRDLQKNNTASPFCLASSAQAATATERASSHDNGSNGGAVIGRGGGNARLHQGTSGNVITAPSKETTEEKKRIQQMSFLREELEHECQRRWPYTPVSKSCIFSLEEKVEAELPADALEQLGIVGAHNTRNSKNGNRRGPRYYLATVDLPLLNKKGGAARFKAPRWWNNRRDAESAAAEATLLALRSMKS” the “soluble on expression in E. coli” value was “not soluble”. For “MAHHHHHHMSRLKHVEWDEKNLEANAEYQRQHPVTIHITEPKTPYSYADGDDLEAEEEGLLKWDPAVNAKVKEIKEQIAGDFSDRPVAPIAKSGRPMLAEGTSTGELAQQQHQKEFRKMRKAVYADEGAMFKRALSHECKDEDDE”, the “soluble on expression in E. coli” value was “not soluble”. In the case of “MAHHHHHHMSRNPSNSDAAHAFWSTQPVPQTEDETEKIVFAGPMDEPKTVADIPEEPYPIASTFEWWTPNMEAADDIHAIYELLRDNYVEDDDSMFRFNYSEEFLQWALCPPNYIPDWHVAVRRKADKKLLAFIAGVPVTLRMGTPKYMKVKAQEKGEGEEAAKYDEPRHICEINFLCVHKQLREKRLAPILIKEATRRVNRTNVWQAVYTAGVLLPTPYASGQYFHRSLNPEKLVEIRFSGIPAQYQKFQNPMAMLKRNYQLPSAPKNSGLREMKPSDVPQVRRILMNYLDSFDVGPVFSDAEISHYLLPRDGVVFTYVVENDKKVTDFFSFYRIPSTVIGNSNYNLLNAAYVHYYAATSIPLHQLILDLLIVAHSRGFDVCNMVEILDNRSFVEQLKFGAGDGHLRYYFYNWAYPKIKPSQVALVML”, the “soluble on expression in E. coli” value is reported as “not soluble”. In the case of “MAHHHHHHMSRSSLIFENNNDNNEKKKRKLFQDEYNYQSCYPLSYLNVYNNNNNNNHNSNNNSNNDNNRIYDYAYSQSYNYTYDQTYNDVYNKIYNDSKNIAQNVLNVQVNEEPYDKSLNNSHTTYPFSNIINSNQLNSNILNNNEMIDMRNFYENGNFVNPMIENKDQNQFNEPNKNNLNNTMANVNNINNINNIQFDKSLLINCIDVLLNFMNYNNLKDTITEETLHENLINLRFYILRLNGGKVSQKKITEYFHKM”, the “soluble on expression in E. coli” value is reported as “not soluble”. For “MAHHHHHHMSSQKESKKRKSDALDQACLELSEEVENAEEVPKKNDEVEEEDLETQFSNWKVNSGLLYDFVSRKELEWPSLSIDFGDYHNENVEDSVFNQIVCVGTHTSNKELNYLYVCEVLFPLEQLPQENCIYKTNQNYEGFDFCPDKKKFTIQSKIAHEGEVNRIKFLPLEKKNFVVTKAIDGNLHLFDINKHEIETSEDKMSPEVSFIGNSSDGFGLDFNAEKKYALTCGNDGVLNLYDYTEMDSKKVSPFYSVKYKSPLNDVCATNDPNLILSCADNGYILMYDIRVKGEEPAQQVLGQQVAVNCISLNKFTGHFASGSENGKIKIWDIKRFSEPQHIIHAHKEPIIRLNFSPNDSSILGSASTSRFINIYNLTKIGEELDAIDLSDGPSELIFSHGGHTQPITDFNWNHHKQLKMFIGSTGEDNTLQFWQLKTELLDEANTVPTSNTDVE”, the “soluble on expression in E. coli” value was “not soluble”. With “MAHHHHHHMSSVDSTHRLLHPCTGILPSASLHGRHSIALAPPPTLPPPPLLHTRIPIHIHIIHYATLNPATFLDHSTQLDYEMPTRFKKCRHQRGSTFCGYGRVGKHRKHESGRGNAGGMHHHRINFDKYHPGYFGKLGMDHYHRKKNPMWKPTINLNNLSRLIAAEEAAKAAKGGTLPVVDLQSSGYAKLLGNGHIQVPCIVKARYVSKLADKKIRKAGGAVVLQA” the “soluble on expression in E. coli” value was “not soluble”.

Reference: the DeepSol protein solubility set
